PMC9279222, “Human myelin proteolipid protein structure and lipid bilayer stacking” (Cellular and Molecular Life Sciences: CMLS, 2022)

Biological target: the molecule itself
Assay: SEC-MALS; protein conjugate analysis; 50 µg protein on Superdex 200 Increase 10/300 in 0.2% DM, 0.3 M NaCl, 0.5 mM TCEP, 5% glycerol, 20 mM Tris pH 7.5; protein-detergent complex

Row | Protein | stoichiometry N
1 | human myelin proteolipid protein (natural protein, UniProt P60201-1 1-277, looked up, myelin proteolipid protein (PLP), human, 30 kDa; cloned from acc; NM_000533; Studied in a detergent complex (DM, UDM or d-DDM); also called PLP; myelin PLP; source: Sf21 insect cells (baculovirus), solubilized in DM or UDM, purified (IMAC, TEV cleavage, reverse IMAC, SEC); not shown: eGFP, C-terminal, cleaved; His8, C-terminal, cleaved) MGLLECCARCLVGAPFASLVATGLCFFGVALFCGCGHEALTGTEKLIETYFSKNYQDYEYLINVIHAFQYVIYGTASFFFLYGALLLAEGFYTTGAVRQIFGDYKTTICGKGLSATVTGGQKGRGSRGQHQAHSLERVCHCLGKWLGHPDKFVGITYALTVVWLLVFACSAVPVYIYFNTWTTCQSIAFPSKTSASIGSLCADARMYGVLPWNAFPGKVCGSNLLSICKTAEFQMTFHLFIAAFVGAAATLVSLLTFMIAATYNFAVLKLMGRGTKF | 2
2 | human DM20 (shorter isoform of myelin proteolipid protein) (natural protein, UniProt P60201-2 1-242, looked up, DM20, minor isoform of human PLP (26 kDa), lacks 35 residues in the intracellular loop; Studied in a detergent complex (DM or UDM); source: Sf21 insect cells (baculovirus), solubilized in DM or UDM, purified (IMAC, TEV cleavage, reverse IMAC, SEC); not shown: eGFP, C-terminal, cleaved; His8, C-terminal, cleaved) MGLLECCARCLVGAPFASLVATGLCFFGVALFCGCGHEALTGTEKLIETYFSKNYQDYEYLINVIHAFQYVIYGTASFFFLYGALLLAEGFYTTGAVRQIFGDYKTTICGKGLSATFVGITYALTVVWLLVFACSAVPVYIYFNTWTTCQSIAFPSKTSASIGSLCADARMYGVLPWNAFPGKVCGSNLLSICKTAEFQMTFHLFIAAFVGAAATLVSLLTFMIAATYNFAVLKLMGRGTKF | 2
